B1: Tryptophan synthase alpha chain, P0A877 (parent)
chain: MERYESLFAQLKERKEGAFVPFVTLGDPGIEQSLKIIDTLIEAGADALELGIPFSDPLADGPTIQNATLRAFAAGVTPAQCFEMLALIRQKHPTIPIGLLMYANLVFNKGIDEFYAQCEKVGVDSVLVADVPVEESAPFRQAALRHNVAPIFICPPNADDDLLRQIASYGRGYTYLLSRAGVTGAENRAALPLNHLVAKLKEYNAAPPLQGFGISAPDQVKAAIDAGAAGAISGSAIVKIIEQHINEPEKMLAALKVFVQPMKAATRS

Variants of: B1
Details: Escherichia coli (strain K12), Thermal, DSC, structure 1WQ5, whole UniProt chain shown
[1] = pH 7, 25 °C, potassium phosphate 1 mM, reversible: yes(<50%)
[2] = pH 7, potassium phosphate 1 mM, reversible: yes(<50%)
[3] = pH 9.3, 25 °C, sodium tetraborate 1 mM, reversible: yes(>70%)
[4] = pH 9.3, sodium tetraborate 1 mM, reversible: yes(>70%)

| Variant | heat capacity change of unfolding [1] [kcal/mol/K] | unfolding free energy [1] [kcal/mol] | Tm [2] [°C] | heat capacity change of unfolding [2] [kcal/mol/K] | heat capacity change of unfolding [3] [kcal/mol/K] | unfolding free energy [3] [kcal/mol] | Tm [4] [°C] | heat capacity change of unfolding [4] [kcal/mol/K] |
| --- | --- | --- | --- | --- | --- | --- | --- | --- |
| MERYESLFAQLKERKEGAFVPFVTLGDPGIEQSLKIIDTLIEAGADALSLGIPFSDPLADGPTIQNATLRAFAAGVTPAQCFEMLALIRQKHPTIPIGLLMYANLVFNKGIDEFYAQCEKVGVDSVLVADVPVEESAPFRQAALRHNVAPIFICPPNADDDLLRQIASYGRGYTYLLSRAGVTGAENRAALPLNHLVAKLKEYNAAPPLQGFGISAPDQVKAAIDAGAAGAISGSAIVKIIEQHINEPEKMLAALKVFVQPMKAATRS [E49S] | 2.9 | 7.7 | 60.5 | 2.9 | 2.9 | 7.1 | 58.6 | 2.9 |
| MERYESLFAQLKERKEGAFVPFVTLGDPGIEQSLKIIDTLIEAGADALQLGIPFSDPLADGPTIQNATLRAFAAGVTPAQCFEMLALIRQKHPTIPIGLLMYANLVFNKGIDEFYAQCEKVGVDSVLVADVPVEESAPFRQAALRHNVAPIFICPPNADDDLLRQIASYGRGYTYLLSRAGVTGAENRAALPLNHLVAKLKEYNAAPPLQGFGISAPDQVKAAIDAGAAGAISGSAIVKIIEQHINEPEKMLAALKVFVQPMKAATRS [E49Q] | 2.9 | 7.4 | – | – | 2.9 | 8.4 | 62.4 | 2.9 |

Source: FireProtDB (doi:10.1111/j.1399-3011.1982.tb00898.x)
